These sequences were tested against human serum albumin (HSA) (Homo sapiens) (UniProt P02768) (assay: ELONA). Details: Nap-dU at all positions marked 6 (n); bead-based ELISA, buffer SB18 (5 mM MgCl2), 37 C.

| Sequence | Kd |
| --- | --- |
| CAGGTCGAGCTGTACGCGTGTGTGACCTG [AL006] | 0.019 µM |
| CTCTCCCAGGTCGAGCTGTACGCGTGTGTGACCTG [AL003] | 0.00224 µM |
| CTCTCCCAGGTCGAGCTGTACGCGTGTGTGACCTGACGTG [AL002] | 0.0207 µM |
| TCCCAGGTCGAGCTGTACGCGTGTGTGACC [AL005] | 0.0147 µM |
